Test results taken from patent US7241873B2, “Recombinant anti-osteopontin antibody and use thereof” (Juridical Foundation the Chemo-sero-therapeutic Research …, priority 2001, dated 2007).

Assays:
[1] = target: T1, human OPN (GST-OPN-a, GST-OPN-b, GST-OPN-c, GST-N half, GST-C half, CHO/OPN-a, thrombin-cleaved OPN) (Homo sapiens, UniProt P10451); experiment: Western blotting of murine monoclonal antibodies with OPN and thrombin digestion products; type: binding
T1 construct: cDNAs encoding the full-length human OPN-a and OPN-b individually including the respective signal peptide regions; made in house; host or cells: Escherichia coli JM109
Method: (§1) The binding potencies of the murine monoclonal antibodies 2K1 (referred to as “murine 2K1 antibody” hereinafter) and 4C1 recovered in the Example 2 to OPN and the thrombin digestion products thereof were tested by Western blotting method. […] Further, these monoclonal antibodies were not only bound to the recombinant OPNs of non-glycosylated type as generated in Escherichia coli but also reacted with the CHO/OPN-a protein of sugar-chain-bound type and the thrombin digestion products thereof (referred to as “thrombin-cleaved OPN” hereinafter).

[2] = system: human OPN (GST-OPN-a, GST-OPN-b, GST-OPN-c, GST-N half, GST-C half, CHO/OPN-a, thrombin-cleaved OPN); experiment: as above; type: binding
Method: as §1

[3] = system: adhesion of α9-transformed SW480 cell to vitronectin; experiment: Adhesion of α9-transformed SW480 cell to vitronectin; type: cell-based, human; conditions: FIG. 2B
[4] = system: adhesion of TIG-7 cell to vitronectin (VN) or fibronectin (FN); experiment: TIG-7 cell adhesion to vitronectin or fibronectin; type: cell-based, human
[5] = system: human peripheral monocyte migration toward thrombin-cleaved OPN; experiment: Migration of TNF-α-activated human peripheral monocyte toward thrombin-cleaved OPN (murine 2K1); type: cell-based; conditions: for Mean migrating cell counts per 1 mm^3 (monocyte): thrombin-cleaved OPN 10 μg/mL
Method: (§2) By the Ficoll method, a monocyte fraction and a neutrophil fraction were separated from normal human peripheral blood (P. M. Daftarian et al., (1996): Journal of Immunology, 157, 12–20). The intermediate layer between Ficoll and serum was collected and cultured in a flask at 37° C. for one hour. The resulting attached cell was used as monocyte. To the erythrocyte layer remaining after collection of the monocyte fraction was added a 5-fold volume of 3% dextran-PBS to aggregate erythrocyte, followed by centrifugation at 150×g and 4° C. for 5 minutes.
(§3) The aggregated erythrocyte was precipitated, while in the resulting supernatant, neutrophil existed in suspended state. Then, the fraction was centrifuged at 500×g and ambient temperature for 20 minutes, to recover neutrophil. The monocyte and neutrophil as recovered in such manner were cultured overnight with human TNF-α (20 ng/mL) for activation. Then, the resulting activated monocyte and neutrophil were used for migration experiments.
(§4) The migration experiments were done, using a 48-well micro chemotaxis chamber (manufactured by Neuro Probe Inc.). After various concentrations of the murine 2K1 antibody were added to the thrombin-cleaved OPN and were then preliminarily left to stand at 37° C. for 15 minutes, the mixtures were added to the lower chamber (to a final human OPN concentration of 10 μg/mL). Placing thereon a polycarbonate filter (pore size of 5 μm), further, a cell suspension (2×10^6 cells/mL) of 50 μL was added to the upper chamber.
(§5) After culturing in the presence of 5% CO2 at 37° C. for 2 hours, the polycarbonate filter was removed to discard the cells on the upper surface of the filter; subsequently, the cells infiltrating to the back face of the filter were stained with Diff-Quick (manufactured by Baxter International Inc.). The stained cells were counted at a magnification×40. The results are shown as mean cell counts (cells/mm^3)±SD in 6 wells.

[6] = system: adhesion of α9-transformed SW480 cell to nOPN; experiment: Adhesion of α9-transformed SW480 cell to nOPN; type: cell-based, human; conditions: FIG. 2B
Method: (§6) It was examined by the following method as to whether or not the murine monoclonal antibodies inhibited cell adhesion to OPN. First, a 96-well plate was precoated with various concentrations of the CHO/OPN-a at 4° C. overnight, which was then treated with 0.5% BSA in PBS under conditions of 37° C. for 10 minutes, so as to block non-specific adhesion. A human fibroblast TIG-7 or SW480 cell transformed with the cDNA of an integrin subunit α9 (referred to as “α9-transformed SW480 cell” hereinafter) was suspended in D-MEM containing 0.25% BSA; 200 μl of the resulting cell suspension (at a cell concentration of 5×10^4 cells/well) was injected in a 96-well plate precoated with the CHO/OPN-a or nOPN, in the presence or absence of various concentrations of the monoclonal antibodies or synthetic peptides, for incubation at 37° C. for one hour.
(§7) The culture medium was discarded from the plate, and all the wells were rinsed twice with D-MEM containing 0.25% BSA. The adherent cells were fixed and stained with 0.5% crystal violet in 20% methanol for 30 minutes.
All the wells were rinsed three times with water, and the adherent cells were then solubilized into 20% acetic acid. The resulting supernatant recovered from each well was analyzed with an immunoreader, to measure the absorbance at 590 nm to determine the relative count of the cells adhering to the well. […]

[7] = system: human peripheral neutrophil migration toward thrombin-cleaved OPN; experiment: Migration of TNF-α-activated human peripheral neutrophil toward thrombin-cleaved OPN; type: cell-based; conditions: for Mean migrating cell counts per 1 mm^3 (neutrophil): thrombin-cleaved OPN 10 μg/mL
Method: as §2, §3, §4, §5

[8] = system: OPN-induced migration of human monocyte U937; experiment: OPN-induced U937 cell migration test (ChemoTx); type: cell-based; conditions: U937, OPNs 10 μg/ml, antibody 50 μg/ml, FIG. 3b
Method: A cell migration test using the U937 cell was performed by using a system ChemoTx101-8 (Neuro Probe Inc.). The cell was adjusted to 2×10^6 cells/ml with D-MEM containing 0.1% BSA, which was then applied to the upper layer on a filter (with a pore size of 8 μm), while the OPN protein was added to the lower layer.
The ChemoTx plate was left to stand in the presence of 5% CO2 at 37° C. for 4 hours. After the plate was left to stand, the filter was fixed with methanol, and was then stained with hematoxylin and eosin (H-E). The number of the cells migrating to the back face of the filter was counted with a microscope (magnification×400). The test was done in a triplicate manner, and the mean was used as data.

[9] = system: adhesion of human fibroblast TIG-7 to CHO/OPN-a; experiment: Inhibition of TIG-7 cell adhesion to OPN; type: cell-based
Method: as §6, §7
All the wells were rinsed three times with water, and the adherent cells were then solubilized into 20% acetic acid. The resulting supernatant recovered from each well was analyzed with an immunoreader, to measure the absorbance at 590 nm to determine the relative count of the cells adhering to the well. All the assays were done in a triplicate fashion, and at least three independent experiments were performed. The values shown represent mean at three independent experiments.

T1 sequence (P10451 17-168): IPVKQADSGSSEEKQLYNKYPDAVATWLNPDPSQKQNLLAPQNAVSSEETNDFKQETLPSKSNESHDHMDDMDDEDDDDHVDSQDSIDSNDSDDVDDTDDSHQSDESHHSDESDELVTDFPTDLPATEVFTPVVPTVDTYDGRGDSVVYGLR

- reactivity with GST-N half [1]: reacted
B1: murine 2K1 antibody: murine monoclonal antibody from mice immunized with Peptide 1 (…) of human OPN; hybridoma FERM BP-7883 (antibody, V domains shown)
VH: QVQLQQSGAELVRPGASVKLSCKALGYTFTDYEMHWVKQTPVHGLEWIGAIHPGRGGTAYNQKFKGKATLTADKSSSTAYMELSSLTSEDSAVYYCTRITGYFDVWGAGTTVTVSS
VL: DVLMTQTPLSLPVSLGDQASISCRSSQSIVHSNGNTYLEWYLQKPGQSPKLLIYKVSNRFSGVPDRFSGSGSGTDFTLKISRVEAEDLGVYYCFQGSHVPLTFGAGTKLELKR
notes: murine monoclonal antibody from mice immunized with Peptide 1 (…) of human OPN; hybridoma FERM BP-7883
- reactivity with GST-OPN-a, GST-OPN-b, GST-OPN-c [2]: reacted
- inhibition of adhesion between α9-transformed SW480 cell and vitronectin [3]: never inhibited
- inhibition of adhesion of TIG-7 cell to vitronectin (VN) or fibronectin (FN) [4]: never inhibit
- inhibition of migration of TNF-α-activated human peripheral monocyte toward thrombin-cleaved OPN [5]: inhibited
- Mean migrating cell counts per 1 mm^3 (monocyte) ([5]; antibody 0.4 μg/mL): 258.0 ± 71.9 counts per 1 mm^3
- Mean migrating cell counts per 1 mm^3 (monocyte) ([5]; antibody 2 μg/mL): 256.7 ± 66.5 counts per 1 mm^3
- Mean migrating cell counts per 1 mm^3 (monocyte) ([5]; antibody 10 μg/mL): 160.0 ± 56.9 counts per 1 mm^3
- Mean migrating cell counts per 1 mm^3 (monocyte) ([5]; antibody 50 μg/mL): 75.0 ± 55.4 counts per 1 mm^3
- inhibition of adhesion between SW480 cell and nOPN [6]: inhibited
- inhibition of migration of TNF-α-activated human peripheral neutrophil toward thrombin-cleaved OPN [7]: inhibited
- Mean migrating cell counts per 1 mm^3 (neutrophil) ([7]; antibody 0.4 μg/mL): 566.7 ± 60.2 counts per 1 mm^3
- Mean migrating cell counts per 1 mm^3 (neutrophil) ([7]; antibody 2 μg/mL): 550.0 ± 49.0 counts per 1 mm^3
- Mean migrating cell counts per 1 mm^3 (neutrophil) ([7]; antibody 10 μg/mL): 450.0 ± 90.8 counts per 1 mm^3
- Mean migrating cell counts per 1 mm^3 (neutrophil) ([7]; antibody 50 μg/mL): 426.7 ± 30.8 counts per 1 mm^3
- inhibition of monocyte migration induced by CHO/OPN-a, thrombin-cleaved OPN and GST-N half [8]: apparently inhibits
- effect on the inhibition of cell adhesion, comparison and concentration dependence ([9]; TIG-7, FIG. 1C): comparative to the effect exerted by mAb53 and is concentration-dependent
- inhibition of cell adhesion to OPN ([9]; antibody 200 μg/ml, TIG-7, FIG. 1B): apparently inhibited
